Data as given in PMC7666139 (Communications Biology, 2020).
Non-standard residues stand in square brackets, D forms with d. No end group written: not given here. pY = N[C@@H](Cc1ccc(OP(=O)(O)O)cc1)C(=O)O

Columns and labels:
Conditions in all cases: both partners purified
[1] = molecular target: T1, 6xHis-tagged HACS1 SH3 domain (human, UniProt Q9NSI8 163-224); experiment: SPR; biotinylated phosphopeptide on a streptavidin gold sensor chip (OpenSPR); analyte 20 µM to 0.1 µM in 10 mM Tris-HCl, 100 mM NaCl, pH 7.4, 0.1% bovine serum albumin, 0.005% Tween-20, 0.05% NaN3; 40 µL/min; 1:1 interaction model
T1 construct: human HACS1 SH3 domain, codon-optimized synthetic gene; Gene synthesized, in a pD441NH expression vector (ATUM); 15N-labelled in the NMR experiments; Minimal folded SH3 domain is 168-222 by the NMR structure; also called HACS SH3 domain; 6xHis-tagged SH3 domain; source: E. coli, purified (Nickel-NTA, gel filtration)

[2] = molecular target: T2, 6xHis/Flag-tagged human SHP2 N-SH2 domain (human, UniProt Q06124 1-107); experiment: as above
T2 construct: human SHP2 phosphatase, N-SH2 domain, aa; 1-107; Gene synthesized; also called SHP2 SH2-N; SHP2 SH2(N) domain; source: E. coli, purified (Nickel-NTA, gel filtration)
T2 sequence (looked up): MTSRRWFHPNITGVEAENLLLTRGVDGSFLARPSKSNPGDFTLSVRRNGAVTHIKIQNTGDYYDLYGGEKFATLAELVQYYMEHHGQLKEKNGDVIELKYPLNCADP

[3] = molecular target: T1, 6xHis-tagged HACS1 SH3 domain; experiment: ITC; 600 µM PIRB-GB1 in the syringe, 37 µM 6xHis-tagged HACS1 SH3 domain in the cell; 10 mM Tris, 50 mM NaCl, 1 mM TCEP, 0.05 NaN3, pH 7.5; single-site binding model

T1 sequence (Q9NSI8 163-224): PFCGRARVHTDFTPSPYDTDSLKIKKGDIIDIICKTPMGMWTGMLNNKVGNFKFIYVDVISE

Binder	Kd [1]	koff [1]	kon [1]	Kd [2]	koff [2]	kon [2]	Kd [3]	stoichiometry N [3]
GGQDVT[pY]AQLHSLTRLREATE (also: biotin (position not given here)) [biotinylated human PIRB derived phosphopeptide]	8.7 µM	0.017 s⁻¹	1900 M⁻¹ s⁻¹	6.7 µM	0.026 s⁻¹	3800 M⁻¹ s⁻¹		
GGQDVT[pY]AQLCSRTLRQGAAAS (also: biotin (position not given here), The leading GG may be a spacer and not part of PIRB; also called murine PIRB phospho-ITIM3 peptide; source: synthetic peptide (Genscript)) [biotinylated murine PIRB derived phosphopeptide]	15.9 µM							
LCSRTLRQGAAAS (peptide, UniProt P97484 797-809, looked up, 797-809; Methods: PIRB fragment and GB1 separated by a random 13 amino acid linker; Not phosphorylated; also called PIRB-GB1 hybrid protein; Protein GB1-tagged PIRB; source: E. coli, purified (Nickel-NTA, gel filtration); not shown: Protein G B1 domain (GB1), C-terminal, kept) [murine PIRB-GB1 fusion protein]							15.9 µM	1
